According to the supplement of paper PMC9112550, “Optimization of the antimicrobial peptide Bac7 by deep mutational scanning” (BMC Biology, 2022):

system: Escherichia coli TOP10; test: shrunken log2 fold change of peptide-encoding DNA abundance (4.5 h post-induction vs induction); higher = less antimicrobial activity (less host growth inhibition); details: time post-induction: 4.5 h; library: site-saturation at positions 5, 18, 19, 20
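Also: peptides expressed intracellularly from a pBAD plasmid library in pooled LB shake-flask culture, induced with 0.3% L-arabinose, DNA abundance read by NGS, three biological replicates, DESeq2 with apeglm shrinkage.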

Sequence | shrunken log2 fold change
RRIRPRPPRLPRPRPRPSNAPRP | 0.055
RRIRPRPPRLPRPRPRPSNWPRP | -0.184
RRIRPRPPRLPRPRPRPSRCPRP | 0.093
RRIRPRPPRLPRPRPRPSSSPRP | -0.134
RRIRPRPPRLPRPRPRPSTIPRP | -0.552
RRIRPRPPRLPRPRPRPSTNPRP | -0.301
RRIRPRPPRLPRPRPRPSWHPRP | 0.182
RRIRPRPPRLPRPRPRPSWSPRP | -0.0705
RRIRPRPPRLPRPRPRPSYDPRP | -0.526
RRIRPRPPRLPRPRPRPSYFPRP | -0.514
RRIRPRPPRLPRPRPRPTACPRP | 0.338
RRIRPRPPRLPRPRPRPTAHPRP | 0.231
RRIRPRPPRLPRPRPRPTCFPRP | 0.0572
RRIRPRPPRLPRPRPRPTCGPRP | -0.0302
RRIRPRPPRLPRPRPRPTECPRP | 0.0179
RRIRPRPPRLPRPRPRPTFCPRP | 0.0727
RRIRPRPPRLPRPRPRPTFQPRP | 0.408
RRIRPRPPRLPRPRPRPTIEPRP | -0.0748
RRIRPRPPRLPRPRPRPTLDPRP | 0.172
RRIRPRPPRLPRPRPRPTLGPRP | 0.564
RRIRPRPPRLPRPRPRPTMWPRP | 0.457
RRIRPRPPRLPRPRPRPTNMPRP | -0.298
RRIRPRPPRLPRPRPRPTPDPRP | 0.356
RRIRPRPPRLPRPRPRPTPPPRP | 0.477
RRIRPRPPRLPRPRPRPTRGPRP | 0.543

Sequence | shrunken log2 fold change
RRIRPRPPRLPRPRPRPTRWPRP | -0.0766
RRIRPRPPRLPRPRPRPTSCPRP | 0.193
RRIRPRPPRLPRPRPRPTSNPRP | -0.123
RRIRPRPPRLPRPRPRPTVDPRP | 0.0336
RRIRPRPPRLPRPRPRPTVKPRP | -0.00591
RRIRPRPPRLPRPRPRPVARPRP | 0.245
RRIRPRPPRLPRPRPRPVEHPRP | 0.00343
RRIRPRPPRLPRPRPRPVEPPRP | 0.352
RRIRPRPPRLPRPRPRPVFAPRP | 0.155
RRIRPRPPRLPRPRPRPVGCPRP | 1.56
RRIRPRPPRLPRPRPRPVGMPRP | -0.0812
RRIRPRPPRLPRPRPRPVHEPRP | 0.497
RRIRPRPPRLPRPRPRPVILPRP | -0.26
RRIRPRPPRLPRPRPRPVLIPRP | -0.237
RRIRPRPPRLPRPRPRPVMQPRP | 0.136
RRIRPRPPRLPRPRPRPVPDPRP | 0.00557
RRIRPRPPRLPRPRPRPVQSPRP | 0.131
RRIRPRPPRLPRPRPRPVRFPRP | 0.28
RRIRPRPPRLPRPRPRPVSCPRP | -0.095
RRIRPRPPRLPRPRPRPVSVPRP | 0.0528
RRIRPRPPRLPRPRPRPVVEPRP | -0.0705
RRIRPRPPRLPRPRPRPVVHPRP | -0.205
RRIRPRPPRLPRPRPRPVVMPRP | -0.174
RRIRPRPPRLPRPRPRPVYAPRP | -0.261
RRIRPRPPRLPRPRPRPVYEPRP | -0.0626

Sequence | shrunken log2 fold change
RRIRPRPPRLPRPRPRPVYPPRP | 3.41
RRIRPRPPRLPRPRPRPWACPRP | -0.00713
RRIRPRPPRLPRPRPRPWANPRP | -0.0618
RRIRPRPPRLPRPRPRPWCAPRP | 0.208
RRIRPRPPRLPRPRPRPWCWPRP | 0.233
RRIRPRPPRLPRPRPRPWESPRP | 0.0303
RRIRPRPPRLPRPRPRPWFAPRP | -0.116
RRIRPRPPRLPRPRPRPWFLPRP | -0.458
RRIRPRPPRLPRPRPRPWFYPRP | -0.543
RRIRPRPPRLPRPRPRPWGTPRP | -0.0725
RRIRPRPPRLPRPRPRPWHLPRP | -0.233
RRIRPRPPRLPRPRPRPWHVPRP | -0.0812
RRIRPRPPRLPRPRPRPWIFPRP | -0.0541
RRIRPRPPRLPRPRPRPWIRPRP | -0.175
RRIRPRPPRLPRPRPRPWMGPRP | -0.114
RRIRPRPPRLPRPRPRPWNRPRP | 0.122
RRIRPRPPRLPRPRPRPWPLPRP | 0.185
RRIRPRPPRLPRPRPRPWPRPRP | 0.766
RRIRPRPPRLPRPRPRPWQGPRP | -0.00211
RRIRPRPPRLPRPRPRPWRQPRP | 0.0206
RRIRPRPPRLPRPRPRPWSFPRP | -0.185
RRIRPRPPRLPRPRPRPWTFPRP | -0.00547
RRIRPRPPRLPRPRPRPWTLPRP | 0.104
RRIRPRPPRLPRPRPRPWVGPRP | 0.0889
RRIRPRPPRLPRPRPRPWVKPRP | -0.0754

Sequence | shrunken log2 fold change
RRIRPRPPRLPRPRPRPWYFPRP | -1.02
RRIRPRPPRLPRPRPRPWYQPRP | -0.0967
RRIRPRPPRLPRPRPRPYALPRP | -1.08
RRIRPRPPRLPRPRPRPYDYPRP | -0.355
RRIRPRPPRLPRPRPRPYEVPRP | -0.125
RRIRPRPPRLPRPRPRPYFDPRP | -0.561
RRIRPRPPRLPRPRPRPYHNPRP | -0.785
RRIRPRPPRLPRPRPRPYHSPRP | -0.659
RRIRPRPPRLPRPRPRPYILPRP | -0.588
RRIRPRPPRLPRPRPRPYKDPRP | -0.477
RRIRPRPPRLPRPRPRPYKGPRP | -0.437
RRIRPRPPRLPRPRPRPYLEPRP | -0.634
RRIRPRPPRLPRPRPRPYLGPRP | 3.16
RRIRPRPPRLPRPRPRPYMNPRP | -1.01
RRIRPRPPRLPRPRPRPYNIPRP | -1.66
RRIRPRPPRLPRPRPRPYNRPRP | -0.0087
RRIRPRPPRLPRPRPRPYPEPRP | -0.421
RRIRPRPPRLPRPRPRPYSNPRP | -1.31
RRIRPRPPRLPRPRPRPYTDPRP | -0.562
RRIRPRPPRLPRPRPRPYWFPRP | -0.579
RRIRPRPPRLPRPRPRPYYEPRP | -0.321
RRIRQRPPRLPRPRPRPAADPRP | 0.0593
RRIRQRPPRLPRPRPRPACCPRP | 0.162
RRIRQRPPRLPRPRPRPACLPRP | 0.14
RRIRQRPPRLPRPRPRPAEIPRP | -0.219

Sequence | shrunken log2 fold change
RRIRQRPPRLPRPRPRPAFGPRP | 0.171
RRIRQRPPRLPRPRPRPAFKPRP | -0.015
RRIRQRPPRLPRPRPRPAGPPRP | -0.000608
RRIRQRPPRLPRPRPRPAHHPRP | 0.138
RRIRQRPPRLPRPRPRPAISPRP | -0.292
RRIRQRPPRLPRPRPRPAIVPRP | -0.0943
RRIRQRPPRLPRPRPRPAKGPRP | 0.01
RRIRQRPPRLPRPRPRPAKQPRP | 0.0569
RRIRQRPPRLPRPRPRPAMKPRP | -0.204
RRIRQRPPRLPRPRPRPANLPRP | 0.164
RRIRQRPPRLPRPRPRPANNPRP | -0.27
RRIRQRPPRLPRPRPRPAPCPRP | 0.222
RRIRQRPPRLPRPRPRPAPVPRP | 1.06
RRIRQRPPRLPRPRPRPAQYPRP | -0.0388
RRIRQRPPRLPRPRPRPAREPRP | -0.0167
RRIRQRPPRLPRPRPRPARTPRP | 0.167
RRIRQRPPRLPRPRPRPASLPRP | -0.232
RRIRQRPPRLPRPRPRPATKPRP | 0.154
RRIRQRPPRLPRPRPRPAWYPRP | -0.0125
RRIRQRPPRLPRPRPRPAYFPRP | 0.191
RRIRQRPPRLPRPRPRPAYIPRP | -0.00563
RRIRQRPPRLPRPRPRPCCEPRP | -0.256
RRIRQRPPRLPRPRPRPCCVPRP | 0.115
RRIRQRPPRLPRPRPRPCDSPRP | -0.0167
RRIRQRPPRLPRPRPRPCGGPRP | 0.257

Sequence | shrunken log2 fold change
RRIRQRPPRLPRPRPRPCISPRP | -0.177
RRIRQRPPRLPRPRPRPCKHPRP | -1.29
RRIRQRPPRLPRPRPRPCKVPRP | -0.101
RRIRQRPPRLPRPRPRPCLEPRP | 0.0782
RRIRQRPPRLPRPRPRPCNDPRP | -0.374
RRIRQRPPRLPRPRPRPCQWPRP | -0.205
RRIRQRPPRLPRPRPRPCRMPRP | -0.126
RRIRQRPPRLPRPRPRPCRTPRP | 0.0557
RRIRQRPPRLPRPRPRPCTEPRP | 0.0363
RRIRQRPPRLPRPRPRPCTVPRP | -0.521
RRIRQRPPRLPRPRPRPCVNPRP | 0.0293
RRIRQRPPRLPRPRPRPCWVPRP | -0.0437
RRIRQRPPRLPRPRPRPDAKPRP | 0.199
RRIRQRPPRLPRPRPRPDDFPRP | -0.0929
RRIRQRPPRLPRPRPRPDDGPRP | -0.171
RRIRQRPPRLPRPRPRPDGFPRP | -0.0107
RRIRQRPPRLPRPRPRPDKNPRP | -0.635
RRIRQRPPRLPRPRPRPDLDPRP | 0.0552
RRIRQRPPRLPRPRPRPDNAPRP | -0.246
RRIRQRPPRLPRPRPRPDPRPRP | -0.00604
RRIRQRPPRLPRPRPRPDPVPRP | 0.0565
RRIRQRPPRLPRPRPRPDQKPRP | 0.019
RRIRQRPPRLPRPRPRPDRCPRP | 0.298
RRIRQRPPRLPRPRPRPDSRPRP | -0.0119
RRIRQRPPRLPRPRPRPDTNPRP | -0.413
